Test results: article PMC5575768

Target: filamentous actin from rabbit skeletal muscle (rabbit) (UniProt P68135)
Experiment: differential scanning calorimetry

| melt temperature of the Tm–actin interaction | melt temperature of the Tn–Tm–actin interaction (Tn with cTnT R92L) | Substance |
| --- | --- | --- |
| 47.2 °C | 47.3 °C | α-tropomyosin, wild type, with N-terminal ala-ser (natural protein) |
| 47.9 °C |  | α-tropomyosin D230N, with N-terminal ala-ser (natural protein) |
